Experimental data reported in PMC3726423.

How the values were obtained:
L7Ae [1] = biological target: T1, L7Ae (Pyrococcus abyssi, UniProt P62008 1-123); assay: footprinting (Pb2+); K-loop KTa/KTb protected; EMSA: 150 mM KCl, 1.5 mM MgCl2, 0.2 mM EDTA, 20 mM HEPES pH 7.9, 65 C 10 min, 50 fmol sRNA, 200 nM proteins (Kd: 50-400 nM aCBF5); fluorescence: 300 mM NaCl, 25
L7Ae [2] = biological target: T1, L7Ae; assay: footprinting (Pb2+); K-loop KTa/KTb protected; A34-U35 enhanced; EMSA: 150 mM KCl, 1.5 mM MgCl2, 0.2 mM EDTA, 20 mM HEPES pH 7.9, 65 C 10 min, 50 fmol sRNA, 200 nM proteins (Kd: 50-400 nM aCBF5); fluorescence: 300 mM NaCl, 25

B1: Pab91 H/ACA sRNA (structured_RNA)
RNA: GGGUAAUGCCCCUCCCCUCUCACACCUCCGGGAUCAGUGACCGGAGGGCGGUCGGGGAGGGGACACCU
B1: binds (L7Ae [1]).

B2: Pab21 H/ACA sRNA (structured_RNA)
RNA: GGGGAUGGGCCCGGCUCCCGCCCUCUCCGGGGAAUCGUGAACCGGGGGUUCCGGCCGGGCCUACAGU
B2: binds (L7Ae [2]).
